Blank lines part the entries; values can stand above or below the binder they belong to.
B1: Tko Spt5 (natural protein, Thermococcus kodakarensis)
chain: MAEGKIFTVSVTVGQETTTANLIYSKAKTYNLPLYAILSPSKVKGYIFIEAPNKSAVEEAIRGIRHAKRVLPGEIPFSEIEHFLEEKPAVSGFEPGDIVELIAGPFKGEKAKVVRVDESKDEIVVELVSSVVPIPVTVRGEYVRLISKRQKE
notes: Spt5, Thermococcus kodakarensis; NGN domain and KOW domain; residues 1-3 not fitted in the map; Used as Spt4/5 (Spt4-Spt5 complex) in the biochemical assays; also called NusG/Spt5
B3: Tko FttA(H255A/H591A) (enzyme, Thermococcus kodakarensis)
chain: MIRRETFVDDILKEIREIIVQMVPREAGITDVEFEGPELVIYVKNPEAMMKDGELIKNLAKVLKKRISVRPDPDILLPPEKAEELIKQLVPPEAEITNISFDPSVGEVLIEARKPGLVIGKNGETLRLITQKVHWAPRVVRTPPIQSQTIYSIRSILQTESKDRRKFLRQVGRNIYRKSEYKSRWIRITGLGGFREVGRSALLVQTDESYVLVDFGVNIAALKDPTKAYPHFDAPEFRYVLDEGLLDAIIITHAALDHSGMLPYLFRYKLFDGPIYTTPPTRDLMTLLQQDFIEIQHMNGVEPLYRPKDIKEVIKHTITLDYGEVRDIAPDIRLTLHNAGHILGSSIVHLHIGNGLHNIAITGDFKFIPTRLFEPAVSRFPRLETLVMESTYGGSNDYQMPREEAEKRLIEVIHQTLKRGGKVLIPAMAVGRAQEIMMVLEEYARVGGIEVPIYLDGMIWEATAIHTAYPEYLSKHIREQIFHEGYNPFLNPIFKSVANSRERQDIIDSGEPAIIIATSGMLVGGPSVEYFKQLAPDPKNSIIFVSYQAEGTLGRQVQRGLREIPIVGEDGRTEVINVNMEVHTIDGFSGAADRRELMSYVARVRPRPERIITVHGEAHKCLDLSSSIHKKFGISTRAPNNLDAIRLK
notes: FttA (aCPSF, aCPSF1), Thermococcus kodakarensis; domains KH1 6-75, KH2 76-144, MβLa 198-428, βCASP 433-557, MβLb 576-639; residues 1-3 of FttA^prox not fitted in the map; Dimer in the structure (protomers FttA^prox and FttA^dist); also called FttA^prox; FttA^dist

Experiments:
Assay in all cases: cryo-EM structure; 4 μM Tko RNAP, 8 μM Spt4, 8 μM Spt5 and 5 μM nucleic acid scaffold (TEC[44] or TEC[52]) in 20 mM HEPES-NaOH pH 7.5, 30 mM KCl, 10 mM magnesium acetate, 1 mM dithiothreitol, 10 min at 22 °C; then FttA(H255A/H591A) added, 10 min at 22 °C and 5 min at 42 °C; CHAPSO added before freezing; single-particle reconstruction at 2.5 Å (TEC[44]) and 2.2 Å (TEC[52])
[1] = molecular target: B3; conditions: both partners purified
[2] = molecular target: B1; conditions: both partners purified
[3] = molecular target: the molecule itself

Binder: B1
- binding result [1]: binds

- binding result [2]: binds
B2: Tko Spt4 (natural protein, Thermococcus kodakarensis)
chain: MAKERACRHCHYITTEDRCPVCGSRDLSDDWFDLVIVLDVESRIAKKLRESIPEAAKVPGKYAIRVR
notes: Spt4, Thermococcus kodakarensis; residues 1-3 not fitted in the map

Binder: B3
- stoichiometry N [3]: 2

From PMC11616081, “Structural basis of archaeal FttA-dependent transcription termination” (Nature, 2024)
